According to publication PMC13598225, “Alternative splicing of synaptotagmin 7 regulates oligomerization and short-term synaptic plasticity” (Proceedings of the National Academy of Sciences of the …, 2026):

Molecular target: T1, α-syt7cyto immobilised for HaloTag pull-down (UniProt Q9R0N7-1 38-403)
T1 construct: synaptotagmin 7, α splice variant, cytoplasmic domain; The sentence on syt1-fl says only 'immobilized syt7'; also called immobilized syt7
Test: pull-down; HaloTag pull-down; syt7 immobilised; syt1-fl reconstituted into liposomes; Ca2+ against EGTA
Conditions: both partners purified

T1 sequence (Q9R0N7 38-403): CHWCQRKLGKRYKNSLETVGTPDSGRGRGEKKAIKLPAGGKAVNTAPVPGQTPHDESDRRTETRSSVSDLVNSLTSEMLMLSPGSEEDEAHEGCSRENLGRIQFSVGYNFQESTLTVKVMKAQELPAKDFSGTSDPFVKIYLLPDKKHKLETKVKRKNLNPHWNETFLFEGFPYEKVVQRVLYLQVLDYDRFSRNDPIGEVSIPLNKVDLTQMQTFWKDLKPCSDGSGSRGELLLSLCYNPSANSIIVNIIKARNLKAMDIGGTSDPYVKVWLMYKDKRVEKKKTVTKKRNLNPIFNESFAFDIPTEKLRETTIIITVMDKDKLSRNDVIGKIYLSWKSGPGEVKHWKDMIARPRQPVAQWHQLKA

B1: syt1-fl reconstituted into liposomes (full-length synaptotagmin 1) (natural protein, UniProt P21707 1-421, looked up)
chain: MVSASHPEALAAPVTTVATLVPHNATEPASPGEGKEDAFSKLKQKFMNELHKIPLPPWALIAIAIVAVLLVVTCCFCVCKKCLFKKKNKKKGKEKGGKNAINMKDVKDLGKTMKDQALKDDDAETGLTDGEEKEEPKEEEKLGKLQYSLDYDFQNNQLLVGIIQAAELPALDMGGTSDPYVKVFLLPDKKKKFETKVHRKTLNPVFNEQFTFKVPYSELGGKTLVMAVYDFDRFSKHDIIGEFKVPMNTVDFGHVTEEWRDLQSAEKEEQEKLGDICFSLRYVPTAGKLTVVILEAKNLKKMDVGGLSDPYVKIHLMQNGKRLKKKKTTIKKNTLNPYYNESFSFEVPFEQIQKVQVVVTVLDYDKIGKNDAIGKVFVGYNSTGAELRHWSDMLANPRRPIAQWHTLQVEEEVDAMLAVKK
notes: synaptotagmin 1, full length (fl); Construct and host are in SI Appendix; source: reconstituted into liposomes
  binding in Ca2+ relative to EGTA (ratio): 1.46 ± 0.15
